Measured values as given in publication PMC2720974, “DNA-binding by Haemophilus influenzae and Escherichia coli YbaB, members of a widely-distributed bacterial protein family” (BMC Microbiology, 2009).
Where a chain is given by its changes, count along the chain named.

T1: YbaBEc (Escherichia coli, UniProt P0A8B5 1-109)
T1 sequence: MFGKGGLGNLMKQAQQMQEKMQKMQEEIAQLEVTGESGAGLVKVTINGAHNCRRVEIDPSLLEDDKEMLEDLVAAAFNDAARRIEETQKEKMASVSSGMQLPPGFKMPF

T2: EbfC (Borrelia burgdorferi, UniProt O51418 1-99)
T2 sequence: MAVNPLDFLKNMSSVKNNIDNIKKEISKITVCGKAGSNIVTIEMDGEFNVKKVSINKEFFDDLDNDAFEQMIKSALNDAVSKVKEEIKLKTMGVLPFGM

B1: Haemophilus influenzae YbaB (natural protein, H. influenzae, UniProt P44711 1-109, looked up)
chain: MFGKGGLGGLMKQAQQMQEKMQKMQEEIAQLEVTGESGAGLVKITINGAHNCRRIDIDPSLMEDDKEMLEDLIAAAFNDAVRRAEELQKEKMASVTAGMPLPPGMKFPF
notes: Purified on a His-Trap column; removal of the tag is not mentioned; also called YbaBHi; HI0442; source: E. coli Rosetta pLysS, purified (His-Trap HP)
B2: b-WT (dsDNA)
DNA 1: TTGTAATGAGTAGTGCATTTGCAATGGAGAGATTTTGGGGAGTTGTTTAAAATTACATTTGCGTTTTGTTAAAATGTAACAGCTGAATGTAACAAAATTATATATTTAAATCTTTGAAATATTGC
DNA 2: GCAATATTTCAAAGATTTAAATATATAATTTTGTTACATTCAGCTGTTACATTTTAACAAAACGCAAATGTAATTTTAAACAACTCCCCAAAATCTCTCCATTGCAAATGCACTACTCATTACAA
B3: b-C40 (dsDNA)
DNA 1: B2 DNA 1 with T75C, G76A, T77C, A91G
DNA 2: B2 DNA 2 with T35C, A49G, C50T, A51G
B4: b-C50 (dsDNA)
DNA 1: B2 DNA 1 with T75C, G76A, T77C, A92T
DNA 2: B2 DNA 2 with T34A, A49G, C50T, A51G
B5: b-C30 (dsDNA)
DNA 1: B2 DNA 1 with T75C, G76A, T77C, A94T
DNA 2: B2 DNA 2 with T32A, A49G, C50T, A51G
B6: b-C20 (dsDNA)
DNA 1: B2 DNA 1 with T75C, G76A, T77C, C93A
DNA 2: B2 DNA 2 with G33T, A49G, C50T, A51G
B7: b-C2 (dsDNA)
DNA 1: B2 DNA 1 with T75C, G76A, T77C
DNA 2: B2 DNA 2 with A49G, C50T, A51G

Assays:
[1] = molecular target: the molecule itself; assay: SEC; data not shown; Superdex 75 10/300 GL, 200 mM NaCl, 50 mM Tris-HCl pH 7.5, 1% glycerol; 200 ul of about 0.2 mg/ml YbaBHi; mass from a calibration curve of standards
YbaBHi [2] = molecular target: T3, YbaBHi (Haemophilus influenzae, UniProt P44711 1-109); assay: EMSA; first step, n=2.09; EMSA: 100 pM biotin-DNA, 50 mM Tris-HCl pH 7.5, 1 mM DTT, protease inhibitor 8 ul/ml, phosphatase inhibitor 2 ul/ml, 10% glycerol, no added salt stated, 20 min, room temperature; details: protein: recombinant; tags: pET15b vector tag, His-Trap purified; chain copies: 2; label: 5' biotin on strand 1; blunt
YbaBHi [3] = molecular target: T3, YbaBHi; assay: EMSA; first step, apparent monomer-equivalent; EMSA: 100 pM biotin-DNA, 50 mM Tris-HCl pH 7.5, 1 mM DTT, protease inhibitor 8 ul/ml, phosphatase inhibitor 2 ul/ml, 10% glycerol, no added salt stated, 20 min, room temperature; details: protein: recombinant; tags: pET15b vector tag, His-Trap purified; chain copies: 2; label: 5' biotin on strand 1; blunt
YbaBEc [4] = molecular target: T1, YbaBEc; assay: as above; details: protein: recombinant; tags: pET200-TOPO vector tag, His-Trap purified; chain copies: 2; label: 5' biotin on strand 1; blunt
YbaBEc [5] = molecular target: T1, YbaBEc; assay: EMSA; first step, n=1.93; EMSA: 100 pM biotin-DNA, 50 mM Tris-HCl pH 7.5, 1 mM DTT, protease inhibitor 8 ul/ml, phosphatase inhibitor 2 ul/ml, 10% glycerol, no added salt stated, 20 min, room temperature; details: protein: recombinant; tags: pET200-TOPO vector tag, His-Trap purified; chain copies: 2; label: 5' biotin on strand 1; blunt
YbaBHi [6] = molecular target: T3, YbaBHi; assay: EMSA; no detectable effect of mutation; EMSA: 100 pM biotin-DNA, 50 mM Tris-HCl pH 7.5, 1 mM DTT, protease inhibitor 8 ul/ml, phosphatase inhibitor 2 ul/ml, 10% glycerol, no added salt stated, 20 min, room temperature; details: protein: recombinant; tags: pET15b vector tag, His-Trap purified; chain copies: 2; label: 5' biotin on strand 1; blunt
YbaBEc [7] = molecular target: T1, YbaBEc; assay: as above; details: protein: recombinant; tags: pET200-TOPO vector tag, His-Trap purified; chain copies: 2; label: 5' biotin on strand 1; blunt
YbaBHi [8] = molecular target: T3, YbaBHi; assay: EMSA; protein at half its Kd; EMSA: 100 pM biotin-DNA, 50 mM Tris-HCl pH 7.5, 1 mM DTT, protease inhibitor 8 ul/ml, phosphatase inhibitor 2 ul/ml, 10% glycerol, no added salt stated, 20 min, room temperature; details: protein: recombinant; tags: pET15b vector tag, His-Trap purified; chain copies: 2; label: 5' biotin on strand 1; blunt
YbaBEc [9] = molecular target: T1, YbaBEc; assay: as above; details: protein: recombinant; tags: pET200-TOPO vector tag, His-Trap purified; chain copies: 2; label: 5' biotin on strand 1; blunt
EbfC = molecular target: T2, EbfC; assay: EMSA; specific plus nonspecific complex; EMSA: 100 pM biotin-DNA, 50 mM Tris-HCl pH 7.5, 1 mM DTT, protease inhibitor 8 ul/ml, phosphatase inhibitor 2 ul/ml, 10% glycerol, no added salt stated, 20 min, room temperature; details: protein: recombinant; tags: His-Trap purified (His tag implied); chain copies: 2; label: 5' biotin on strand 1; blunt

Binder | binding result (YbaBHi [6]) | binding result (YbaBEc [7]) | other results
B1 |  |  | stoichiometry N [1]: 2
B2 |  |  | Ka (YbaBHi [2]): 1.7e+13 M-2; Kd (YbaBHi [3]): 240 nM; Kd (YbaBEc [4]): 77 nM; Ka (YbaBEc [5]): 1.7e+14 M-2
B3 | binds | binds | 
B4 | binds | binds | 
B5 | binds | binds | 
B6 | binds | binds | 
B7 |  |  | binding result (YbaBHi [8]): binds; binding result (YbaBEc [9]): binds; binding result (EbfC): binds
